Here are results for three molecules from patent publication US20250179152A1.

This assay has as its target wild type Δ19 spike protein on pseudotyped lentivirus (SARS-CoV-2 (Wuhan-1)), P0DTC2. Put plainly: cell-based or functional assay.

B1: SR22 (designed binder)
chain: MGSSHHHHHHSSGLVPRGSHMEQKLISEEDLGSDLGKKLLEAARAGQDDEVRILMANGADVNACDPSGITPLHLAADKGHLEIVEVLLKYGADVNAMDVWGRTPLHLAAFTGHLEIVEVLLKYGADVNACDLNGYTPLHLAAGRGHLEIVEVLLKNGAGVNAQDKFGKTAFDISIDNGNEDLAEILQSSS
B1 yielded a Neutralization IC50, pseudotyped lentivirus of 0.7 µM.

B2: FSR16m (designed binder)
chain: MGMEQKLISEEDLDGYIPEAPRDGQAYVRKDGEWVLLSTFLGGGGSLQGGGGSLQGSDLGKKLLEAARAGQDDEVRILMANGADVNALDLFGVTPLHLAAERGHLEIVEVLLKNGADVNAGDAFGRTPLHLAALGGHLEIVEVLLKNGADVNACDLYGVTPLHLAAGLGHLEIVEVLLKNGADVNAQDKFGKTAFDISIDNGNEDLAEILQSSSKLAAALEHHHHHH
With B2, the fold enhancement of neutralization IC50 upon trimerization (against SR16m) was 35000 fold.

B3: SR16m (designed binder)
chain: MGSSDLGKKLLEAARAGQDDEVRILMANGADVNALDLFGVTPLHLAAERGHLEIVEVLLKNGADVNAGDAFGRTPLHLAALGGHLEIVEVLLKNGADVNACDLYGVTPLHLAAGLGHLEIVEVLLKNGADVNAQDKFGKTAFDISIDNGNEDLAEILQSSSKLAAALEHHHHHH
For B3, the IC50, pseudotyped lentivirus was found to be 11 µM and the Neutralization IC50, pseudotyped lentivirus was 11.6 µM.
